Measured values published in the supplement of paper PMC10724198.
± gives the standard deviation of the averaged measurements.

The sequences below were run on Saccharomyces cerevisiae (assay: protein stability index of tFT-peptide fusion (C-terminal peptide) (PSI (0-1 scale)); higher = more stable (slower turnover)). Conditions: genetic background: wild type; temperature: 30 C.
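Note: PSI is a weighted mean of sequencing reads over stability bins, variants kept only with over 10 reads, mCherry proximal and sfGFP distal, peptide attached via GGGS linker.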

Going from LPHLSPPPLAQL to LPHSPHRAAYPN, the protein stability index rises from 0.686 ± 0.033 to 0.8 ± 0.013.

Going from LPHYLAFPFFMI to LPIARLPPPPPR, the protein stability index rises from 0.499 ± 0.08 to 0.707 ± 0.1.

LPITTPLPPLDP and LPLALLSPPFGS are within error of each other in protein stability index: 0.688 ± 0.02 for the first, 0.707 ± 0.022 for the second.

Going from LPLHAPPPHRHP to LPLPHPQPTPYP, the protein stability index rises from 0.683 ± 0.013 to 0.756 ± 0.046.

First: LPLPPLPPPSCP
Second: LPLSRPPLPPPL
The protein stability index of the first is lower: 0.718 ± 0.032 for the first, 0.786 ± 0.031 for the second.

LPNLGWTNSSIE and LPNPTSPSPQAA are within error of each other in protein stability index: 0.667 ± 0.066 for the first, 0.693 ± 0.025 for the second.

First: LPPALAPLPPPL
Second: LPPCGQIVSLDT
The protein stability index of the first is lower: 0.572 ± 0.021 for the first, 0.68 ± 0.022 for the second.

Compared with LPPLAPSSPPRP, LPPLLGPSPCPP is lower in protein stability index: 0.696 ± 0.033 for the first, 0.604 ± 0.015 for the second.

LPPLLLPTRPLS and LPPLPPLAHHPA are within error of each other in protein stability index: 0.662 ± 0.12 for the first, 0.699 ± 0.044 for the second.

LPPPLPLPSRHY and LPPPLSSPSSLR are within error of each other in protein stability index: 0.671 ± 0.06 for the first, 0.7153 ± 0.0071 for the second.

LPPPPLSPPSLV and LPPPPPAFLDSF are within error of each other in protein stability index: 0.734 ± 0.0078 for the first, 0.691 ± 0.065 for the second.

LPPPPPPLPHPP and LPPPPRPALSHR are within error of each other in protein stability index: 0.597 ± 0.083 for the first, 0.72 ± 0.089 for the second.

LPPPRSPPLPRL and LPPPSPPPIPSP are within error of each other in protein stability index: 0.802 ± 0.059 for the first, 0.688 ± 0.06 for the second.

LPPPVFPLRLSL and LPPRPGFLSSLP are within error of each other in protein stability index: 0.703 ± 0.027 for the first, 0.64 ± 0.082 for the second.

Compared with LPPRSPSPHPHR, LPPSPLPPLPPP is higher in protein stability index: 0.68 ± 0.0078 for the first, 0.6942 ± 0.0012 for the second.

LPPSRSPPPFPL and LPPSSCPPPPTP are within error of each other in protein stability index: 0.728 ± 0.048 for the first, 0.702 ± 0.068 for the second.

LPPSSFPTPSPP and LPPSTYPASTPS are within error of each other in protein stability index: 0.723 ± 0.08 for the first, 0.674 ± 0.054 for the second.

LPPVPRAYFSDT and LPRHKWLPSGLG are within error of each other in protein stability index: 0.714 ± 0.061 for the first, 0.686 ± 0.056 for the second.

LPRPPPPSPPPP and LPRTALHSPSPY are within error of each other in protein stability index: 0.7 ± 0.042 for the first, 0.723 ± 0.082 for the second.

LPRTPPPLAHGP and LPSGLTSPPRSS are within error of each other in protein stability index: 0.688 ± 0.041 for the first, 0.712 ± 0.031 for the second.

LPSHPHDRPPQT and LPSLDSVCLLFP are within error of each other in protein stability index: 0.719 ± 0.019 for the first, 0.685 ± 0.026 for the second.

First: LPSLLIHLVSQT
Second: LPSPALSRSDPT
The protein stability index of the first is lower: 0.668 ± 0.02 for the first, 0.729 ± 0.031 for the second.

LPSPPRHPSAPR and LPSPRIPLTSQS are within error of each other in protein stability index: 0.683 ± 0.022 for the first, 0.638 ± 0.031 for the second.

LPSPSYPAPVPN and LPTPSLPPLPFH are within error of each other in protein stability index: 0.65 ± 0.074 for the first, 0.623 ± 0.058 for the second.

Going from LPTSPQLPHAPS to LPTSSTRVEFSV, the protein stability index falls from 0.7192 ± 0.0046 to 0.638 ± 0.045.

LPVPLYPTPALL and LPVPPPPPLPET are within error of each other in protein stability index: 0.666 ± 0.14 for the first, 0.702 ± 0.061 for the second.

LPYAMPGFHSTR and LQASRHPASPST are the same in protein stability index: 0.701 ± 0.037 for the first, 0.701 ± 0.048 for the second.

Going from LQCCVAVTNYCV to LQCRAEFQRARC, the protein stability index rises from 0.54 ± 0.016 to 0.666 ± 0.031.

LQFAQLLDISIT and LQKNKIPTKKKD are within error of each other in protein stability index: 0.696 ± 0.062 for the first, 0.647 ± 0.0097 for the second.

LRARLTGRFIVG and LRAWAAPPPHGL are within error of each other in protein stability index: 0.669 ± 0.013 for the first, 0.727 ± 0.076 for the second.

LRCFLESPRQST and LRESPPHLPFPP are within error of each other in protein stability index: 0.724 ± 0.071 for the first, 0.701 ± 0.039 for the second.

LRFGEGILLDWG and LRFRCGNSRILS are within error of each other in protein stability index: 0.723 ± 0.043 for the first, 0.724 ± 0.044 for the second.

LRGAWRISIEGG and LRGEGAGPEDVG are within error of each other in protein stability index: 0.666 ± 0.036 for the first, 0.67 ± 0.029 for the second.

LRGTEMMSTSVV and LRGVDSALCGAR are within error of each other in protein stability index: 0.656 ± 0.085 for the first, 0.693 ± 0.082 for the second.

Going from LRHLPRDVPSYI to LRLSASRLLPPP, the protein stability index rises from 0.7049 ± 0.0046 to 0.736 ± 0.015.

LRLSSYRAPRPR and LRPCSSLPSTPP are within error of each other in protein stability index: 0.649 ± 0.032 for the first, 0.718 ± 0.049 for the second.

LRPCVSHLHLQN and LRPGRSKHSSQA are within error of each other in protein stability index: 0.677 ± 0.18 for the first, 0.721 ± 0.044 for the second.

LRQVGTASSLRR and LRREQIKEAKHR are within error of each other in protein stability index: 0.717 ± 0.045 for the first, 0.66 ± 0.017 for the second.

LRRNHREPGYSK and LRRPSPPAPPPP are within error of each other in protein stability index: 0.684 ± 0.024 for the first, 0.718 ± 0.11 for the second.

LRSAPTLFTRPY and LRSAYGHCLQKI are within error of each other in protein stability index: 0.677 ± 0.0091 for the first, 0.715 ± 0.14 for the second.

Going from LRSCLARGLFFG to LRSLRFALFPPA, the protein stability index falls from 0.7426 ± 0.0066 to 0.642 ± 0.083.

Going from LRVQASALHVLQ to LRVQFFFLAGCT, the protein stability index falls from 0.667 ± 0.021 to 0.584 ± 0.006.

LRYGSDQMERFI and LSAMVSYTRAPF are within error of each other in protein stability index: 0.717 ± 0.1 for the first, 0.67811 ± 0.00065 for the second.

Compared with LSARAKRTVTFL, LSASHVMSLTNL is higher in protein stability index: 0.593 ± 0.043 for the first, 0.698 ± 0.028 for the second.

LSCQWNSDSLGV and LSCRGVTIRYCW are within error of each other in protein stability index: 0.644 ± 0.1 for the first, 0.683 ± 0.012 for the second.

Going from LSCSPVFFPLQP to LSDLDSMVMIVP, the protein stability index rises from 0.69 ± 0.0096 to 0.869 ± 0.16.

LSDSLERVGGAF and LSFSFSPTSPPP are within error of each other in protein stability index: 0.701 ± 0.048 for the first, 0.739 ± 0.072 for the second.

LSFWGLLSFWTP and LSGWVLVGNWGN are within error of each other in protein stability index: 0.594 ± 0.02 for the first, 0.647 ± 0.036 for the second.

LSILSIHAHRAN and LSLAPPPLLHHL are within error of each other in protein stability index: 0.665 ± 0.099 for the first, 0.664 ± 0.02 for the second.

Going from LSLLKPLALCES to LSLLPFLRPPPI, the protein stability index rises from 0.559 ± 0.032 to 0.774 ± 0.043.

LSLPPHSPPLHR and LSLPQPHPPLKS are within error of each other in protein stability index: 0.702 ± 0.04 for the first, 0.679 ± 0.029 for the second.

LSMPRVHTRHRP and LSPGLPRLLVKM are within error of each other in protein stability index: 0.708 ± 0.014 for the first, 0.669 ± 0.033 for the second.

LSPLGLGPLLPP and LSPLRPPAPSVF are within error of each other in protein stability index: 0.68 ± 0.048 for the first, 0.646 ± 0.038 for the second.

LSPPFLLTSPLT and LSPPLAPPPALP are within error of each other in protein stability index: 0.703 ± 0.046 for the first, 0.701 ± 0.08 for the second.

First: LSPPPPPPVFSP
Second: LSPPVLLAPPQH
The protein stability index of the first is higher: 0.727 ± 0.026 for the first, 0.59 ± 0.0098 for the second.

Going from LSRPPSRPLPLP to LSRTAFRPSLTL, the protein stability index rises from 0.677 ± 0.04 to 0.746 ± 0.024.

LSSADSVVSSVV and LSTYVLRTGSFP are within error of each other in protein stability index: 0.696 ± 0.0093 for the first, 0.677 ± 0.1 for the second.

Compared with LSVAYSDIIVRC, LSVSRLGFLLRG is higher in protein stability index: 0.554 ± 0.0065 for the first, 0.684 ± 0.037 for the second.

Going from LSVTGGRFSVSG to LSYSSLGLRFSY, the protein stability index falls from 0.7174 ± 0.0063 to 0.579 ± 0.02.

LSYWPDARRPVL and LTFPILPVSTRV are within error of each other in protein stability index: 0.643 ± 0.046 for the first, 0.603 ± 0.025 for the second.

LTGSGSGQGSRN and LTHSTLCYASDL are within error of each other in protein stability index: 0.688 ± 0.0097 for the first, 0.677 ± 0.018 for the second.

LTKHQITKKAER and LTLPSDSSALPA are within error of each other in protein stability index: 0.73 ± 0.078 for the first, 0.748 ± 0.03 for the second.

Going from LTPCPHATPEPP to LTPFQGLHLPIP, the protein stability index rises from 0.615 ± 0.026 to 0.745 ± 0.037.

LTPMDVPDPLPH and LTVGPCQPAGEA are within error of each other in protein stability index: 0.757 ± 0.14 for the first, 0.776 ± 0.065 for the second.

Going from LTVLCWVLCYLL to LTYFSDRFVTRV, the protein stability index rises from 0.527 ± 0.026 to 0.6579 ± 0.0051.

LVAHLSTAPPPP and LVCCRRILLNTT are within error of each other in protein stability index: 0.675 ± 0.0061 for the first, 0.634 ± 0.089 for the second.

Going from LVCPLGIEGFSM to LVCSSVALLSVL, the protein stability index falls from 0.723 ± 0.034 to 0.593 ± 0.018.

Going from LVDARVRLTFVI to LVGAGREGRFVA, the protein stability index rises from 0.536 ± 0.014 to 0.732 ± 0.083.

LVGGTVYRKPSP and LVGICERRHVHC are within error of each other in protein stability index: 0.599 ± 0.025 for the first, 0.638 ± 0.11 for the second.

LVKRINKVNNRR and LVKVGCVGLIKC are within error of each other in protein stability index: 0.632 ± 0.1 for the first, 0.545 ± 0.0066 for the second.

LVLPCLLLFPPS and LVNLESRAGAIR are within error of each other in protein stability index: 0.711 ± 0.047 for the first, 0.713 ± 0.043 for the second.

First: LVNSEKFCLSIC
Second: LVPDGFMLALKE
The protein stability index of the first is lower: 0.535 ± 0.035 for the first, 0.686 ± 0.038 for the second.

Compared with LVQGPLSQDQPI, LVRFVLNKYRGR is higher in protein stability index: 0.656 ± 0.029 for the first, 0.718 ± 0.012 for the second.

LVRVFGQSPAPL and LVSFSDTPMATA are within error of each other in protein stability index: 0.696 ± 0.031 for the first, 0.786 ± 0.1 for the second.

First: LVVSITGRFRRF
Second: LVVWFGYFGCLL
The protein stability index of the first is higher: 0.69 ± 0.03 for the first, 0.56 ± 0.063 for the second.

LVWGGVWGAPCR and LVWTGGLVGWLR are within error of each other in protein stability index: 0.774 ± 0.034 for the first, 0.719 ± 0.2 for the second.

LVYPSPPLQPPP and LWAYRFAAGEVH are within error of each other in protein stability index: 0.649 ± 0.013 for the first, 0.589 ± 0.08 for the second.

Compared with LWGGGVGGVRGV, LWGGPLLLPVCL is lower in protein stability index: 0.641 ± 0.027 for the first, 0.577 ± 0.013 for the second.

LWGRAVYETFQM and LWGSGRNWLLWR are within error of each other in protein stability index: 0.67 ± 0.063 for the first, 0.7 ± 0.017 for the second.

Compared with LWGVGGADARLQ, LWGWAGLRCGGF is lower in protein stability index: 0.775 ± 0.021 for the first, 0.685 ± 0.032 for the second.
